Measurements taken from patent publication US20080044436A1, “Method for Screening and Compositions for Treating Cancers” (priority 2004, published 2008).

Assays:
Assay type in all cases: cell-based, human
T47-D cells = assay: T47-D cell proliferation (cell counts) with control or TReP-132 siRNA and progesterone; conditions: T47-D transfected control cells, 30 nM progesterone, 4 to 6 days of treatment
Method: FIG. 3: Induction of TReP-132 by progesterone and suppression of progesterone inhibition of T47-D cell proliferation following TReP-132 knockdown by using small interfering RNA (“siRNA”). (T47-D cells were treated for the indicated times with 30 nM progesterone). Experiments were carried out in triplicate, and values represent the mean ±SD of a representative experiment.
FIG. 3B: Cells transfected with control siRNA or TReP-132 siRNA (400 ng) at 0 and 3 days were recovered at days 2, 4 or 6 and counted. (ns: not significant −*, p<0.05; **, […]; ***, p<0.001).
The sense 5′-[…]-3′ and the antisense 5′-[…]-3′ oligonucleotides were synthesized (Eurogentec) and used to generate double-stranded siRNA specific for TReP-132 (21 bp corresponding to amino acids 861-881 […] the initiation codon of the human TReP-132 gene). […] Transfection was carried out by using the GeneSilencer reagent (Gene Therapy Systems, San Diego, USA) as directed by the manufacturer. Transfection efficiency was verified by FACS analysis (Fluorescence-Activated Cell Sorting) (see below). […] Statistical analyses were carried out with the nonparametric Kruskal-Wallis test.

p27^KiP1 gene = assay: RNase protection assay of CDKI transcription in HeLa cells, p27; conditions: HeLa Tet-off cells, doxycycline removed
Method: (§1) All radiolabelled probes specific for the p130, Rb, p107, p53, p57, p27, p21, p19, p18, p14/p15, L32, and GAPDH genes were labelled with [α-^32P]UTP-ribonucleotide (PerkinElmer Life Sciences, Woodbridge, Ontario, CA) in the conditions specified in the “hCC-2 Muti-Probe Template Set” kit (Pharmingen, Mississauga, Ontario, CA). Ribonuclease protection experiments were carried out with the Ribonuclease III Protection kit (Ambion, Austin, Tex.). Ten micrograms of HeLa cell RNA were hybridized with the radiolabelled probe mixture at 56° C. and then digested for 45 min at 30° C. in RNase A/RNase T1 solution diluted 1:1000 in digestion buffer. The samples were separated on a polyacrylamide-6% urea gel.

HeLa cells = assay: Doubling time of reseeded HeLa colonies expressing exogenous TReP-132; conditions: HeLa cells expressing TReP-132; control pcDNA3 cells 18 hours
Method: HeLa cells were seeded in 12-well plates at an initial density of 100,000 cells per well, incubated for 24 hours, then transfected with each of the following plasmids: pcDNA3, pcDNA3-Luc, pcDNA3-SF-1, or pcDNA3-TReP-132, each containing the neomycin resistance gene. The transfections were carried out in triplicate with ExGen 500 (MBI Fermentas, Flamborough, Ontario, Canada) at a ratio of 5 μl of ExGen 500 per 1 μg of plasmid. After 12 hours of transfection, the medium was changed and the cells were incubated for an additional 8 hours. The cells were then trypsinized and transferred to a 100 mm petri dish. After 48 hours, the medium was supplemented with 400 μg/ml of the selection agent G418 (Sigma-Aldrich CA Ltd.). Distinct colonies could be detected after two weeks of selection with G418. The cells were then rinsed with PBS and fixed with a mixture of 10% acetic acid/10% methanol for 15 min, then colored with crystal violet (Sigma-Aldrich CA Ltd.).
The cell proliferation rate was determined by the cellular DNA content using the fluorochorome DABA ([…]). […] Fluorescence was measured on a Perkin-Elmer LS-2B Filter Fluorimeter at an excitation wavelength of 400 nm and an emission wavelength of 508 nm. The DNA content was calculated from a standard curve of known quantities of salmon sperm DNA.

p21^CIP1/WAF1 gene = assay: RNase protection assay of CDKI transcription in HeLa cells, p21; conditions: HeLa Tet-off cells, doxycycline removed
Method: as §1

p27 promoter = assay: Luciferase reporter assay in HeLa cells, p27 promoter; conditions: 0.3 μg TReP-132 expression vector, dose-dependent
Method: The pGL2 and pGL3 reporter constructs (100 ng) were cotransfected with the indicated amounts of expression vectors and 10 ng of the control plasmid pRL.Null. The amount of plasmid was then normalized with the empty vector pcDNA3. After 12 hours of transfection, the medium was changed and cells were incubated for an additional 10 and 34 hours, respectively. During this period, T47-D cells were cultured in the presence and absence of progesterone (30 nM). The cells were then harvested and cell lysates (20 μl) were assayed for luciferase activity (Dual Luciférase™ Reporter Assay System, Promega, Madison, Wis., USA) in a Berthold LUMAT LB9501 luminometer. The transfections were performed in triplicate and each experiment was repeated at least three times.
TReP-132 activation of the p21, p27 and p16 cyclin kinase inhibitor promoters was studied by transfection of HeLa and T47-D cells. HeLa cells were seeded in 24-well plates at an initial density of 15,000 cells per well and transfected the next day with ExGen 500 (MBI Fermentas, Flamborough, Ontario, Canada) at a ratio of 4 μl of ExGen 500 per 0.5 μg DNA. T47-D cells were seeded at a density of 100,000 cells per well and transfected the next day with FuGENE 6 reagent (Roche Molecular Biochemicals, Laval, Canada), at a ratio of 3 μl of FuGENE per 1 μg of DNA. […]

Molecule | cell proliferation (T47-D cells) | p27 gene transcription (p27^KiP1 gene) | doubling time (HeLa cells) [h] | p21 gene transcription (p21^CIP1/WAF1 gene) | p27 promoter induction (p27 promoter)
CC(=O)[C@H]1CC[C@H]2[C@@H]3CCC4=CC(=O)CC[C@]4(C)[C@H]3CC[C@]12C [progesterone, reference compound] | inhibited cell proliferation |  |  |  | 
TReP-132: Transcriptional Regulating Protein of 132 kDa, polypeptide comprising SEQ ID NO: 2; here expressed in cells from vectors (protein) MGDQQLYKTNHVAHGSENLFYQQPPLGVHSGLNHNYGNAVTGGGMDAPQASPISPHFPQDTRDGLGLPVGSKNLGQMDTSRQGGWGSHAGPGNHVQLRGNLANSNMMWGAPAQAEPTDGYQYTYSQASEIRTQKLTSGVLHKLDSFTQVFANQNLRIQVNNMAQVLHTQSAVMDGAPDSALRQLLSQKPMEPPAPAIPSRYQQVPQQPHPGFTGGLSKPALQVGQHPTQGHLYYDYQQPLAQVPVQGGQPLQAPQMLSQHMQQMQQHQYYPPQQQQQAGQQRISMQEIQTQPQQIRPSQPQPPPQQQQPQQLQLQQRQGSMQIPQYYQPQPMMQHLQEQQQQQMHLQPPSYHRDPHQYTPEQAHTVQLIPLGSMSQYYYQEPQQPYSHPLYQQSHLSQHQQREDSQLKTYSSDRQAQAMLSSHGDLGPPDTGMGDPASSDLTRVSSTLPHRPLLSPSGIHLNNMGPQHQQLSPSAMWPQMHLPDGRAQPGSPESSGQPKGAFGEQFDAKNKLTCSICLKEFKNLPALNGHMRSHGGMRASPNLKQEEGEKVLPPQPQPPLPPPPPPPPPPQLPPEAESLTPMVMPVSVPVKLLPPKPSSQGFTNSTVAAPSARDKPASSMSDDEMPVLEIPRKHQPSVPKAEEPLKTVQEKKKFRHRPEPLFIPPPPSYNPNPAASYSGATLYQSQLRSPRVLGDHLLLDPTHELPPYTPPPMLSPVRQGSGLFSNVLISGHGPGAHPQLPLTPLTPTPRVLLCRSNSIDGSNVTVTPGPGEQTVDVEPRINIGLRFQAEIPELQDISALAQDTHKATLVWKPWPELENHDLQQRVENLLNLCCSSALPGGGTNSEFALHSLFEAKGDVMVALEMLLLRKPVRLKCHPLANYHYAGSDKWTSLERKLFNKALATYSKDFIFVQKMVKSKTVAQCVEYYYTWKKIMRLGRKHRTRLAEIIDDCVTSEEEEELEEEEEEDPEEDRKSTKEEESEVPKSPEPPPVPVLAPTEGPPLQALGQPSGSFICEMPNCGAVFSSRQALNGHARIHGGTNQVTKARGAIPSGKQKPGGTQSGYCSVKSSPSHSTTSGETDPTTIFPCKECGKVFFKIKSRNAHMKTHRQQEEQQRQKAQKAAFAAEMAATIERTTGPVGAPGLLPLDQLSLIKPIKDVDILDDDVVQQLGGVMEEAEVVDTDLLLDDQDSVLLQGDAEL |  | induction | 30 | induction | approximately 7 fold
